Measurements published in PMC5884802.
Values belong to the molecule of their own block, whether it stands above or below them.

Legend:
[1] = system: α-Amp-short (α-Amp-short-AuNP) (DNA, aptamer) CACGGCATGGTGGGCGTCGTG; assay: competitive lateral flow assay; conditions: Na+ 50 mM, K+ 5 mM, Mg2+ 5 mM, Ca2+ 2 mM; 20 mM Tris, 0.1 mM BSA, 1.7% Triton-X-100, pH 8; biotinylated CRP displaced; signal decrease at 185 µg ampicillin
[2] = system: α-CRP (α-CRP-AuNP) (DNA, aptamer) ACACGATGGGGGGGTATGATTTGATGTGGTTGTTGCATGATCGTGG; assay: competitive lateral flow assay; conditions: Na+ 50 mM, K+ 5 mM, Mg2+ 5 mM, Ca2+ 2 mM; 20 mM Tris, 0.1 mM BSA, 1.7% Triton-X-100, pH 8; biotinylated CRP displaced; signal decrease at 18.5 µg ampicillin
[3] = system: CRP-FAM (α-CRP aptamer) (DNA, aptamer) ACACGATGGGGGGGTATGATTTGATGTGGTTGTTGCATGATCGTGG; assay: microscale thermophoresis; conditions: Na+ 50 mM, K+ 5 mM, Mg2+ 5 mM, Ca2+ 2 mM; 20 mM Tris-HCl, 0.1% Tween-20, pH 8.0; up to 100 µM; no plateau, no fit
[4] = system: Amp(short)-FAM (α-Amp(short) aptamer) (DNA, aptamer) CACGGCATGGTGGGCGTCGTG; assay: microscale thermophoresis; conditions: Na+ 50 mM, K+ 5 mM, Mg2+ 5 mM, Ca2+ 2 mM; 20 mM Tris-HCl, 0.1% Tween-20, pH 8.0; second printed KD 600 nM, unexplained
[5] = target: T1, C-reactive protein (CRP), biotinylated (UniProt P02741 19-224); assay: lateral flow assay (FAM); 4 µg CRP-biotin; LFA: 20 mM Tris, 50 mM NaCl, 5 mM KCl, 5 mM MgCl2, 2 mM CaCl2, 0.1 mM BSA, 1.7% Triton X-100, pH 8, temperature not stated; MST with CRP-biotin: 32.8 mM Tris-HCl, 70.5 mM NaCl, 2.5 mM KCl, 2.5 mM MgCl2, 1.4 mM CaCl2, 0.1% Tween-20, 5 nM FAM-oligo; conditions: protein: commercial; tags: biotin (NHS-PEG4-Biotin); chain copies: 5; label: 5' FAM
T1 sequence: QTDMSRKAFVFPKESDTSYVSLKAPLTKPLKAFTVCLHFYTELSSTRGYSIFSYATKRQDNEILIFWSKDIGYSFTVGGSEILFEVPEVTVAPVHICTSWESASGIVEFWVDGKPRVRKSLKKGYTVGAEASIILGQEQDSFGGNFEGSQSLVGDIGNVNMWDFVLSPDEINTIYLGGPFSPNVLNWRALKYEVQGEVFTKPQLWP

[6] = target: T1, C-reactive protein (CRP), biotinylated; assay: lateral flow assay (AuNP); 40.5 µg CRP-biotin; test line stronger than α-CRP; LFA: 20 mM Tris, 50 mM NaCl, 5 mM KCl, 5 mM MgCl2, 2 mM CaCl2, 0.1 mM BSA, 1.7% Triton X-100, pH 8, temperature not stated; MST with CRP-biotin: 32.8 mM Tris-HCl, 70.5 mM NaCl, 2.5 mM KCl, 2.5 mM MgCl2, 1.4 mM CaCl2, 0.1% Tween-20, 5 nM FAM-oligo; conditions: protein: commercial, tags: biotin (NHS-PEG4-Biotin), chain copies: 5, label: 10 nm gold nanoparticle via 5' thiol
[7] = target: T1, C-reactive protein (CRP), biotinylated; assay: MST; binding indicated, no plateau, no Kd fit; CRP-biotin 610 pM-20 µM; LFA: 20 mM Tris, 50 mM NaCl, 5 mM KCl, 5 mM MgCl2, 2 mM CaCl2, 0.1 mM BSA, 1.7% Triton X-100, pH 8, temperature not stated; MST with CRP-biotin: 32.8 mM Tris-HCl, 70.5 mM NaCl, 2.5 mM KCl, 2.5 mM MgCl2, 1.4 mM CaCl2, 0.1% Tween-20, 5 nM FAM-oligo; conditions: protein: commercial; tags: biotin (NHS-PEG4-Biotin); chain copies: 5; label: 5' FAM; stem-loop (Mfold)
[8] = target: T1, C-reactive protein (CRP), biotinylated; assay: lateral flow assay (AuNP); 40.5 µg CRP-biotin; LFA: 20 mM Tris, 50 mM NaCl, 5 mM KCl, 5 mM MgCl2, 2 mM CaCl2, 0.1 mM BSA, 1.7% Triton X-100, pH 8, temperature not stated; MST with CRP-biotin: 32.8 mM Tris-HCl, 70.5 mM NaCl, 2.5 mM KCl, 2.5 mM MgCl2, 1.4 mM CaCl2, 0.1% Tween-20, 5 nM FAM-oligo; conditions: protein: commercial; tags: biotin (NHS-PEG4-Biotin); chain copies: 5; label: 10 nm gold nanoparticle via 5' thiol; stem-loop (Mfold)

binding [1]: yes | binding [2]: yes | binding [3]: yes | KD [4]: 263 nM
Molecule: CC1(C)S[C@@H]2[C@H](NC(=O)[C@H](N)c3ccccc3)C(=O)N2[C@H]1C(=O)O

Molecule: ACACGAACCGGGCCAATGATTTGATGACCTTGTTGCATGATCGTAG (ssDNA) [CRP w/o TGG-FAM]
binding result [5]: binds

Molecule: CACGGCATAGACCGCGTCGTG (ssDNA) [Amp(short) w/o TGG-FAM]
binding result [5]: binds

Molecule: TTTTTTTTTTTTTTTCACGGCATGGTGGGCGTCGTG (ssDNA, 5' SH-(C6H12) thiol) [α-Amp-poly(T) (AuNP conjugate)]
binding result [6]: binds

Molecule: CACGGCATGGTGGGCGTCGTG (ssDNA, 5' SH-(C6H12) thiol) [α-Amp-short (AuNP conjugate)]
binding result ([6]; stem-loop (Mfold)): binds

Molecule: CACGGCATGGTGGGCGTCGTG (ssDNA) [Amp(short)-FAM]
binding result [7]: binds

Molecule: ACACGATGGGGGGGTATGATTTGATGTGGTTGTTGCATGATCGTGG (ssDNA) [CRP-FAM]
binding result [7]: binds

Molecule: ACACGATGGGGGGGTATGATTTGATGTGGTTGTTGCATGATCGTGG (ssDNA, 5' SH-(C6H12) thiol) [α-CRP (AuNP conjugate)]
binding result [8]: binds
